Measurements reported in US20100048462A1, “TRUNCATED PTH PEPTIDES WITH A CYCLIC CONFORMATION” (Zealand Pharma A/S, priority 2006, published 2010).
Bridge positions count the residues as written; N and C are the ends. Square brackets hold non-standard residues; d marks the D form. hArg = N=C(N)NCCCC[C@H](N)C(=O)O; Ac5c = NC1(C(=O)O)CCCC1; Abu = CC[C@H](N)C(=O)O; Aib = CC(C)(N)C(=O)O

Molecular target: Saos-2 PTH1R (UniProt Q03431)
Test: cell-based or functional assay

B1: H-Ac5c-Val-Aib-Glu-Ile-Gln-Leu-Met-His-Gln-Har-Ala-Lys( )-Trp-Leu-Asp-Asp( )-NH2 (peptide)
chain: H-[Ac5c]V[Aib]EIQLMHQ[hArg]AKWLDD-NH2
modifications: lactam 13-17
SMILES: CC[C@H](C)[C@H](NC(=O)[C@H](CCC(=O)O)NC(=O)C(C)(C)NC(=O)[C@@H](NC(=O)C1(N)CCCC1)C(C)C)C(=O)N[C@@H](CCC(N)=O)C(=O)N[C@@H](CC(C)C)C(=O)N[C@@H](CCSC)C(=O)N[C@@H](Cc1c[nH]cn1)C(=O)N[C@@H](CCC(N)=O)C(=O)N[C@@H](CCCCNC(=N)N)C(=O)N[C@@H](C)C(=O)N[C@H]1CCCCNC(=O)C[C@@H](C(N)=O)NC(=O)[C@H](CC(=O)O)NC(=O)[C@H](CC(C)C)NC(=O)[C@H](Cc2c[nH]c3ccccc23)NC1=O
  Emax, cAMP efficacy assay in Saos-2 cells (23T, trifluoroacetate salt) (relative to control (SEQ ID NO: 32)): 1.16
  pEC50, cAMP efficacy assay in Saos-2 cells (23T, trifluoroacetate salt): 7.48 -log(M)

B2: H-Aib-Val-Ac5c-Glu-Ile-Gln-Leu-Leu-His-Gln-Har-Ala-Lys( )-Trp-Leu-Asn-Asp( )-NH2 (peptide)
chain: H-[Aib]V[Ac5c]EIQLLHQ[hArg]AKWLND-NH2
modifications: lactam 13-17
SMILES: CC[C@H](C)[C@H](NC(=O)[C@H](CCC(=O)O)NC(=O)C1(NC(=O)[C@@H](NC(=O)C(C)(C)N)C(C)C)CCCC1)C(=O)N[C@@H](CCC(N)=O)C(=O)N[C@@H](CC(C)C)C(=O)N[C@@H](CC(C)C)C(=O)N[C@@H](Cc1c[nH]cn1)C(=O)N[C@@H](CCC(N)=O)C(=O)N[C@@H](CCCCNC(=N)N)C(=O)N[C@@H](C)C(=O)N[C@H]1CCCCNC(=O)C[C@@H](C(N)=O)NC(=O)[C@H](CC(N)=O)NC(=O)[C@H](CC(C)C)NC(=O)[C@H](Cc2c[nH]c3ccccc23)NC1=O
  Emax, cAMP efficacy assay in Saos-2 cells (13T, trifluoroacetate salt) (relative to control (SEQ ID NO: 32)): 0.96
  pEC50, cAMP efficacy assay in Saos-2 cells (13T, trifluoroacetate salt): 7.27 -log(M)

B3: H-Abu-Val-Aib-Glu-Ile-Gln-Leu-Leu-His-Gln-Har-Ala-Lys( )-Trp-Leu-Asn-Asp( )-NH2 (peptide)
chain: H-[Abu]V[Aib]EIQLLHQ[hArg]AKWLND-NH2
modifications: lactam 13-17
SMILES: CC[C@H](N)C(=O)N[C@H](C(=O)NC(C)(C)C(=O)N[C@@H](CCC(=O)O)C(=O)N[C@H](C(=O)N[C@@H](CCC(N)=O)C(=O)N[C@@H](CC(C)C)C(=O)N[C@@H](CC(C)C)C(=O)N[C@@H](Cc1c[nH]cn1)C(=O)N[C@@H](CCC(N)=O)C(=O)N[C@@H](CCCCNC(=N)N)C(=O)N[C@@H](C)C(=O)N[C@H]1CCCCNC(=O)C[C@@H](C(N)=O)NC(=O)[C@H](CC(N)=O)NC(=O)[C@H](CC(C)C)NC(=O)[C@H](Cc2c[nH]c3ccccc23)NC1=O)[C@@H](C)CC)C(C)C
  Emax, cAMP efficacy assay in Saos-2 cells (11T, trifluoroacetate salt) (relative to control (SEQ ID NO: 32)): 1.04
  pEC50, cAMP efficacy assay in Saos-2 cells (11T, trifluoroacetate salt): 7.17 -log(M)

B4: H-Ac5c-Val-Abu-Glu-Ile-Gln-Leu-Leu-His-Gln-Har-Ala-Lys( )-Trp-Leu-Asn-Asp( )-NH2 (peptide)
chain: H-[Ac5c]V[Abu]EIQLLHQ[hArg]AKWLND-NH2
modifications: lactam 13-17
SMILES: CC[C@H](NC(=O)[C@@H](NC(=O)C1(N)CCCC1)C(C)C)C(=O)N[C@@H](CCC(=O)O)C(=O)N[C@H](C(=O)N[C@@H](CCC(N)=O)C(=O)N[C@@H](CC(C)C)C(=O)N[C@@H](CC(C)C)C(=O)N[C@@H](Cc1c[nH]cn1)C(=O)N[C@@H](CCC(N)=O)C(=O)N[C@@H](CCCCNC(=N)N)C(=O)N[C@@H](C)C(=O)N[C@H]1CCCCNC(=O)C[C@@H](C(N)=O)NC(=O)[C@H](CC(N)=O)NC(=O)[C@H](CC(C)C)NC(=O)[C@H](Cc2c[nH]c3ccccc23)NC1=O)[C@@H](C)CC
  Emax, cAMP efficacy assay in Saos-2 cells (15T, trifluoroacetate salt) (relative to control (SEQ ID NO: 32)): 1.04
  pEC50, cAMP efficacy assay in Saos-2 cells (15T, trifluoroacetate salt): 7.22 -log(M)

B5: H-Ac5c-Val-Aib-Glu-Ile-Gln-Leu-Leu-His-Gln-Har-Ala-Lys( )-Trp-Leu-Asn-Asp( )-OH (peptide)
chain: H-[Ac5c]V[Aib]EIQLLHQ[hArg]AKWLND-OH
modifications: lactam 13-17
SMILES: CC[C@H](C)[C@H](NC(=O)[C@H](CCC(=O)O)NC(=O)C(C)(C)NC(=O)[C@@H](NC(=O)C1(N)CCCC1)C(C)C)C(=O)N[C@@H](CCC(N)=O)C(=O)N[C@@H](CC(C)C)C(=O)N[C@@H](CC(C)C)C(=O)N[C@@H](Cc1c[nH]cn1)C(=O)N[C@@H](CCC(N)=O)C(=O)N[C@@H](CCCCNC(=N)N)C(=O)N[C@@H](C)C(=O)N[C@H]1CCCCNC(=O)C[C@@H](C(=O)O)NC(=O)[C@H](CC(N)=O)NC(=O)[C@H](CC(C)C)NC(=O)[C@H](Cc2c[nH]c3ccccc23)NC1=O
  Emax, cAMP efficacy assay in Saos-2 cells (5T, trifluoroacetate salt) (relative to control (SEQ ID NO: 32)): 1.16
  pEC50, cAMP efficacy assay in Saos-2 cells (5T, trifluoroacetate salt): 7.14 -log(M)

B6: H-Ac5c-Val-Aib-Glu-Ile-Gln-Phe-Leu-His-Gln-Har-Ala-Lys( )-Trp-Leu-Asn-Asp( )-NH2 (peptide)
chain: H-[Ac5c]V[Aib]EIQFLHQ[hArg]AKWLND-NH2
modifications: lactam 13-17
SMILES: CC[C@H](C)[C@H](NC(=O)[C@H](CCC(=O)O)NC(=O)C(C)(C)NC(=O)[C@@H](NC(=O)C1(N)CCCC1)C(C)C)C(=O)N[C@@H](CCC(N)=O)C(=O)N[C@@H](Cc1ccccc1)C(=O)N[C@@H](CC(C)C)C(=O)N[C@@H](Cc1c[nH]cn1)C(=O)N[C@@H](CCC(N)=O)C(=O)N[C@@H](CCCCNC(=N)N)C(=O)N[C@@H](C)C(=O)N[C@H]1CCCCNC(=O)C[C@@H](C(N)=O)NC(=O)[C@H](CC(N)=O)NC(=O)[C@H](CC(C)C)NC(=O)[C@H](Cc2c[nH]c3ccccc23)NC1=O
  Emax, cAMP efficacy assay in Saos-2 cells (27T, trifluoroacetate salt) (relative to control (SEQ ID NO: 32)): 0.92
  pEC50, cAMP efficacy assay in Saos-2 cells (27T, trifluoroacetate salt): 7.91 -log(M)

B7: H-Ac5c-Val-Aib-Glu-Ile-Glu-Leu-Leu-His-Gln-Har-Ala-Lys( )-Trp-Leu-Asn-Asp( )-NH2 (peptide)
chain: H-[Ac5c]V[Aib]EIELLHQ[hArg]AKWLND-NH2
modifications: lactam 13-17
SMILES: CC[C@H](C)[C@H](NC(=O)[C@H](CCC(=O)O)NC(=O)C(C)(C)NC(=O)[C@@H](NC(=O)C1(N)CCCC1)C(C)C)C(=O)N[C@@H](CCC(=O)O)C(=O)N[C@@H](CC(C)C)C(=O)N[C@@H](CC(C)C)C(=O)N[C@@H](Cc1c[nH]cn1)C(=O)N[C@@H](CCC(N)=O)C(=O)N[C@@H](CCCCNC(=N)N)C(=O)N[C@@H](C)C(=O)N[C@H]1CCCCNC(=O)C[C@@H](C(N)=O)NC(=O)[C@H](CC(N)=O)NC(=O)[C@H](CC(C)C)NC(=O)[C@H](Cc2c[nH]c3ccccc23)NC1=O
  Emax, cAMP efficacy assay in Saos-2 cells (29T, trifluoroacetate salt) (relative to control (SEQ ID NO: 32)): 1.27
  pEC50, cAMP efficacy assay in Saos-2 cells (29T, trifluoroacetate salt): 6.95 -log(M)

B8: H-Ac5c-Val-Aib-Glu-Ile-Gln-Leu-Met-His-Gln-Arg-Ala-Lys( )-Trp-Leu-Asn-Asp( )-NH2 (peptide)
chain: H-[Ac5c]V[Aib]EIQLMHQRAKWLND-NH2
modifications: lactam 13-17
SMILES: CC[C@H](C)[C@H](NC(=O)[C@H](CCC(=O)O)NC(=O)C(C)(C)NC(=O)[C@@H](NC(=O)C1(N)CCCC1)C(C)C)C(=O)N[C@@H](CCC(N)=O)C(=O)N[C@@H](CC(C)C)C(=O)N[C@@H](CCSC)C(=O)N[C@@H](Cc1c[nH]cn1)C(=O)N[C@@H](CCC(N)=O)C(=O)N[C@@H](CCCNC(=N)N)C(=O)N[C@@H](C)C(=O)N[C@H]1CCCCNC(=O)C[C@@H](C(N)=O)NC(=O)[C@H](CC(N)=O)NC(=O)[C@H](CC(C)C)NC(=O)[C@H](Cc2c[nH]c3ccccc23)NC1=O
  Emax, cAMP efficacy assay in Saos-2 cells (25T, trifluoroacetate salt) (relative to control (SEQ ID NO: 32)): 1.04
  pEC50, cAMP efficacy assay in Saos-2 cells (25T, trifluoroacetate salt): 8.05 -log(M)
